Measured values taken from article PMC12717047 (Nature Communications, 2025).

Columns and labels:
Assay in all cases: flow cytometry on cells
[1] = target: T1, KRAS^WT p5 peptide presented on HLA-A*02 (p5^WT/A*02) (Homo sapiens, HLA-A*02:01, strain, biotin on the AviTag (BirA co-expressed))
T1 chain 1: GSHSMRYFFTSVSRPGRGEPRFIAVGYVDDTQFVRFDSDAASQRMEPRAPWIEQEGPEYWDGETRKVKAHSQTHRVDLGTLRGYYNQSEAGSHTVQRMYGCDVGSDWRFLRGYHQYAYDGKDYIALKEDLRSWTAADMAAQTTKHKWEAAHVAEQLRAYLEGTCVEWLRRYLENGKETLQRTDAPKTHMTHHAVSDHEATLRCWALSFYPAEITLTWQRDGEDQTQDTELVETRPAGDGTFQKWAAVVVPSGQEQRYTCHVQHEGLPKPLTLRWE
T1 chain 2: not shown
T1 chain 3: KLVVVGAGGV

[2] = target: T2, KRAS^WT p7 peptide presented on HLA-A*03 (p7^WT/A*03) (Homo sapiens, HLA-A*03:01, strain, biotin on the AviTag (BirA co-expressed))
T2 chain 1: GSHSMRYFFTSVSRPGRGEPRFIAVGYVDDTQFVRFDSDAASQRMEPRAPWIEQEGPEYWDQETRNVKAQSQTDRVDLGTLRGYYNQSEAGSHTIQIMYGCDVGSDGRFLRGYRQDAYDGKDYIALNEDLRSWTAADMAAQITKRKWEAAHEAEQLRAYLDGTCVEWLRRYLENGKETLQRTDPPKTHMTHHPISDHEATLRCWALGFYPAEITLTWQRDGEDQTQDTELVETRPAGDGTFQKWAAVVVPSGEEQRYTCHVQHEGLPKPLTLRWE
T2 chain 2: not shown
T2 chain 3: VVVGAGGVGK

[3] = target: KRAS^WT p7 peptide presented on HLA-A*11 (p7^WT/A*11) (Homo sapiens, HLA-A*11:01, strain, biotin on the AviTag (BirA co-expressed))

Measured: binding result

B1: yeast-displayed scFv R302 (scFv, V domains shown)
VH: EVQLLESGGGVVQPGRSLRLSCAASGFTFSSYGMHWVRQAPGKGLEWVAVISYDGSNKYYADSVKGRFTISRDNSKNTLYLQMNSLRAEDTAVYYCLYGGNSYGMDVWGQGTMVTVFN
VL: DIVMTQSPATLSLSPGERATLSCRASQSLSSSFLAWYQQKPGQAPRLLIYGASSRATGIPDRFSGSGSGTDFTLTISRLEPEDFAVYYCQQSESALTFGGGTKVEIK
no binding: [1] | [2] | [3]
